The record followed here is US20220073604A1 (ARGENX BVBA, published 2022).

Where a chain is given by its changes, count along the chain named.

Experiment [1] has as its target T1, human IL-6 (as added in the B9 and 7TD1 bioassays) (human, UniProt P05231 30-212). In words: cell-based or functional assay.
Experiment [2] addresses T2, bacterially produced human IL-6 (human, UniProt P05231 30-212).
T2 construct: also called bactIL-6; prokaryotic IL-6
Briefly: SPR; purified Fab over biotinylated IL-6 on streptavidin chip.
Experimental: From the washing phase the off-rate (kd) was determined, while from the injection phase the on-rate (ka) was calculated using the concentration and off-rate as parameters.

Experiment [3] deals with T3, cynomolgus monkey IL-6 (cynomolgus monkey, UniProt P79341 28-212, limits assumed).
T3 construct: Immobilised on the Biacore chip
Briefly: SPR (Biacore), periplasmic Fab. Background: Surface plasmon resonance follows binding to a sensor surface in real time, without labels.

The target in experiment [4] is T4, bacterially produced human IL-6 (human, UniProt P05231 30-212).
T4 construct: Immobilised on the Biacore chip; also called BACT IL-6 (2-1); bactIL-6
Briefly: SPR (Biacore), periplasmic Fab.

Experiment [5] has as its target T5, eukaryotically produced human IL-6 (human, UniProt P05231 30-212).
T5 construct: Immobilised on the Biacore chip; also called Euk IL-6; EUK IL-6 (3-1)
In words: SPR (Biacore), periplasmic Fab.

Experiment [6] concerns the target T1, human IL-6 (as added in the B9 and 7TD1 …). Briefly: cell-based or functional assay. This is another data set of the same source.

B1: 111A7_SDM2_M100A (antibody, V domains shown)
VH: EVQLLESGGGLVQPGGSLRLSCAASGFTFSSYAMSWVRQAPGKGPEWVSRISAGGGSTYYGDSVKGRFTISRDNSKNTLYLQMNSLRAEDTAVYYCANRAGWGAGDYWGQGTLVTVSS
VL: QTVVTQEPSFSVSPGGTVTLTCGLSSGSVTASNYPGWYQQTPGQAPRALIYSTNDRHSGVPDRFSGSISGNKAALTITGAQAEDEADYYCALDIGDITEFGGGTQLTVL
Regarding B1, in experiment [1], the “IC50, 7TD1 cells” value was found to be 1.57 pM and the “Potency relative to 68F2, 7TD1 cells” value is 0.43.

B2: Fab 28C6 (Fab, V domains shown)
VH: QVQLVESGGGLVQPGGSLRLSCAASGFTFSNYYMTWVRQAPGKGLEWVSSIYSFSGDTAYADSVKGRFTISRDNAKNTLYLQMNKLKSEDTAVYYCTRDLGGVVVTANGYDYWGQGTQVTVSS
VL: DIVMTQTPSSLSASLGDRVTITCQASQSISTELSWYQQKPGQTPKLLIYGASRLQTGVPARFSGSGSGTSFTLTISGLEAEDLATYYCLQDYSWPYSFGSGTRL
notes: Fab
As to B2, in experiment [2], the Ka came out at 4.04e+07 M⁻¹; the affinity, expressed as Kd, was 24800 pM; the koff (usually the rate constant with which the complex falls apart) stood at 0.0025 s⁻¹; the kon (commonly the rate constant with which the complex forms) stood at 101000 M⁻¹ s⁻¹.

B3: 55E10 (Fab, V domains shown)
VH: B2 VH with K85S, D99N, A107T
VL: DIQMTQSPSSLPTSLGDSVTITCQASQSISDELSWYQQKPGQTPKLLIYGASKLQTGVPSRFSGSGSGTSFTLTISGLEAEDLATYYCLQGYSWPFMFGQGTKVELK
notes: Periplasmic Fab; Suffix 'g1' not explained; also called 55E10g1
On to B3, for which, in experiment [3], the Ka came out at 2.1e+09 M⁻¹; the Kd – broadly, the concentration at which binding is half-saturated – came out at 476 pM; the “fold improvement of KD over 28A6 (parental)” value was 11 fold; the “fold improvement of ka over 28A6 (parental)” value (“fold improvement of ka” for short) was determined as 1.13 fold. Also, in experiment [3], the “fold improvement of kd over 28A6 (parental)” value is 9.78 fold, the koff was found to be 6.88e-05 s⁻¹ and the kon is 145000 M⁻¹ s⁻¹. In experiment [4], the Ka amounted to 3.18e+09 M⁻¹, binding was put at a Kd of 315 pM, the “fold improvement of KD over 28A6 (parental)” value is 2.38 fold and the “fold improvement of ka” value amounted to 0.81 fold. In experiment [4], the “fold improvement of kd over 28A6 (parental)” value was 2.92 fold, the koff is 6.09e-05 s⁻¹ and the kon came to 193000 M⁻¹ s⁻¹. For the same molecule, in experiment [5], the Ka was found to be 2.62e+09 M⁻¹; the affinity, expressed as Kd, was 382 pM; the “fold improvement of KD over 28A6 (parental)” value is 1.52 fold; the “fold improvement of ka” value turned out to be 0.8 fold. Also, in experiment [5], the “fold improvement of kd over 28A6 (parental)” value was 1.88 fold, the koff was 5.59e-05 s⁻¹ and the kon stood at 146000 M⁻¹ s⁻¹.

B4: 55A11 (Fab, V domains shown)
VH: B2 VH with K85S, D99N, A107T
VL: B3 VL with K53R, S65R
notes: Periplasmic Fab; Suffix 'd' of the label not explained; also called 55A11d
Turning to B4, in experiment [3], the Ka is 1.77e+09 M⁻¹, the Kd worked out at 566 pM, the “fold improvement of KD over 28A6 (parental)” value turned out to be 9.28 fold and the “fold improvement of ka” value was 1.13 fold. Moreover, in experiment [3], the “fold improvement of kd over 28A6 (parental)” value turned out to be 8.24 fold, the off-rate constant (koff) came to 8.17e-05 s⁻¹ and the kon was found to be 144000 M⁻¹ s⁻¹. In experiment [4], the Ka worked out at 2.78e+09 M⁻¹, the Kd stood at 359 pM, the “fold improvement of KD over 28A6 (parental)” value was 2.09 fold and the “fold improvement of ka” value was 0.79 fold. In experiment [4], the “fold improvement of kd over 28A6 (parental)” value turned out to be 2.63 fold, the dissociation rate constant (koff) was found to be 6.76e-05 s⁻¹ and the kon worked out at 188000 M⁻¹ s⁻¹. Moreover, in experiment [5], the Ka came to 1.59e+09 M⁻¹, the Kd was found to be 631 pM, the “fold improvement of KD over 28A6 (parental)” value came to 0.92 fold and the “fold improvement of ka” value came to 0.55 fold. Moreover, in experiment [5], the “fold improvement of kd over 28A6 (parental)” value stood at 1.65 fold, the koff is 6.36e-05 s⁻¹ and the kon was determined as 101000 M⁻¹ s⁻¹.

B5: 55C11 (Fab, V domains shown)
VH: B2 VH with K85S, D99N, A107T
VL: B3 VL with M4L, P12S, T13A, S93R
notes: Periplasmic Fab; Suffix 'f' not explained; also called 55C11f
Turning to B5, in experiment [3], the Ka stood at 3.2e+09 M⁻¹, the Kd was 313 pM, the “fold improvement of KD over 28A6 (parental)” value was found to be 16.8 fold and the “fold improvement of ka” value turned out to be 2.23 fold. Also, in experiment [3], the “fold improvement of kd over 28A6 (parental)” value was 7.56 fold, the koff was found to be 8.9e-05 s⁻¹ and the association rate constant (kon) worked out at 285000 M⁻¹ s⁻¹. In experiment [4], the Ka is 3.29e+09 M⁻¹, the Kd turned out to be 304 pM, the “fold improvement of KD over 28A6 (parental)” value was determined as 2.46 fold and the “fold improvement of ka” value was 0.96 fold. Besides, in experiment [4], the “fold improvement of kd over 28A6 (parental)” value turned out to be 2.56 fold, the koff was 6.94e-05 s⁻¹ and the kon amounted to 228000 M⁻¹ s⁻¹. Also, in experiment [5], the Ka is 3.1e+09 M⁻¹, the Kd was 323 pM, the “fold improvement of KD over 28A6 (parental)” value turned out to be 1.8 fold and the “fold improvement of ka” value turned out to be 1.1 fold. Besides, in experiment [5], the “fold improvement of kd over 28A6 (parental)” value worked out at 1.62 fold, the koff was found to be 6.47e-05 s⁻¹ and the kon was 201000 M⁻¹ s⁻¹.

B6: 48H1 (Fab, V domains shown)
VH: B2 VH with K85S, D99N, A107T
VL: B3 VL with I2V, Q3V
notes: Periplasmic Fab; Suffix 'g2, R4' not explained; also called 48H1g2, R4
B6: in experiment [3], the Ka amounted to 1.18e+09 M⁻¹, the Kd was 845 pM, the “fold improvement of KD over 28A6 (parental)” value was determined as 6.21 fold and the “fold improvement of ka” value was determined as 0.88 fold. Besides, in experiment [3], the “fold improvement of kd over 28A6 (parental)” value is 7.11 fold, the koff came out at 9.46e-05 s⁻¹ and the association rate constant (kon) was 112000 M⁻¹ s⁻¹. For the same molecule, in experiment [4], the Ka is 2.93e+09 M⁻¹, binding was characterised by a dissociation constant (Kd) of 341 pM, the “fold improvement of KD over 28A6 (parental)” value stood at 2.2 fold and the “fold improvement of ka” value is 0.87 fold. In addition, in experiment [4], the “fold improvement of kd over 28A6 (parental)” value was 2.53 fold, the off-rate constant (koff) turned out to be 7.04e-05 s⁻¹ and the kon came to 206000 M⁻¹ s⁻¹. For the same molecule, in experiment [5], the Ka is 1.56e+09 M⁻¹, binding was characterised by a dissociation constant (Kd) of 640 pM, the “fold improvement of KD over 28A6 (parental)” value turned out to be 0.91 fold and the “fold improvement of ka” value was 0.58 fold. In addition, in experiment [5], the “fold improvement of kd over 28A6 (parental)” value came to 1.54 fold, the koff was determined as 6.8e-05 s⁻¹ and the kon is 106000 M⁻¹ s⁻¹.

B7: Fab 18F8 (Fab, V domains shown)
VH: EVQLVESGGGLVQPGGSLRLSCAASGFTFSRNAMSWVRQAPGKGLEWVSAINSGGGSTSYADSVKGRFTISRDNAKNTLYLQMNSLKPEDTAVYYCAKEGYTGWKDPMYDYWGQGTQVTVSS
VL: QSALTQPSALSVTLGQTAKITCQGGSLGSRYAHWYQQKPGQAPVLVIYDDDSRPSGIPERFSGSSSGGRATLTISGAQAEDEGDYYCQSADTSEHIVFGGGTHLTVLG
notes: Fab
As for B7, in experiment [2], the Ka is 6.18e+07 M⁻¹; the affinity, expressed as Kd, was 16200 pM; the koff stood at 0.000784 s⁻¹; the kon worked out at 48400 M⁻¹ s⁻¹.

B8: 129F2 (germlined variant of 68F2), full-length IgG1 (antibody, V domains shown)
VH: EVQLQESGPGLVKPSQTLSLTCTVSGGSITSRYYAWSWIRQPPGKGLEWIGVIDYDGDTYYSPSLKSRVTISWDTSKNQFSLKLSSVTAEDTAVYYCARDPDVVTGFHYDYWGQGTMVTVSS
VL: QSALTQPPSVSGTPGQTVTISCAGANNDIGTYAYVSWYQQLPGTAPKLMIYKVTTRASGIPDRFSGSKSGNTASLTISGLQSEDEADYYCASYRNFNNAVFGGGTKLTVL
Turning to B8, in experiment [6], the “IC50, 7TD1 proliferation assay, exp 22.06” value was 0.703 pM; the “IC50, 7TD1 proliferation assay, exp 29.06” value worked out at 0.517 pM; the “Rel. Potency, 7TD1, exp 29.06” value turned out to be 1.08.

B9: 129E11 (germlined variant of 68F2), full-length IgG1 (antibody, V domains shown)
VH: B8 VH with I50M, W73V, M117L
VL: B8 VL with S9L, T13S, M49L, I60V, G103T
Take B9: in experiment [6], the “IC50, 7TD1 proliferation assay, exp 7.07” value was determined as 1.55 pM; the “IC50, 7TD1 proliferation assay, exp 29.06” value is 0.857 pM; the “Rel. Potency, 7TD1, exp 7.07” value came to 0.88; the “Rel. Potency, 7TD1, exp 29.06” value was determined as 0.65.

B10: 126A3 (germlined variant of 68F2), full-length IgG1 (antibody, V domains shown)
VH: B8 VH with S31T, W73V, E90A
VL: B8 VL with T13A, M49L, D62S, S78T, G103R
Turning to B10, in experiment [6], the “IC50, 7TD1 proliferation assay, exp 7.07” value turned out to be 0.63 pM; the “IC50, 7TD1 proliferation assay, exp 29.06” value was 0.564 pM; the “Rel. Potency, 7TD1, exp 7.07” value was found to be 2.16; the “Rel. Potency, 7TD1, exp 29.06” value was determined as 0.99.

B11: 133A9 (germlined variant of 68F2) (antibody, V domains shown)
VH: B8 VH with S31T, D56E, W73V
VL: B8 VL with S9L, T13S, L41P, K68I, G103T
Regarding B11, in experiment [1], the “IC50, 7TD1 cells” value came out at 0.18 pM and the “Potency relative to 68F2, 7TD1 cells” value came out at 3.66.

B12: 127F1 (germlined variant of 68F2), full-length IgG1 (antibody, V domains shown)
VH: B8 VH with S31T, T70S, E90A, M117L
VL: B8 VL with A3V, T17R, M49L, I60V, T72S, S78T, K106H
In the case of B12, in experiment [6], the “IC50, 7TD1 proliferation assay, exp 7.07” value is 1.49 pM; the “IC50, 7TD1 proliferation assay, exp 29.06” value came to 0.637 pM; the “Rel. Potency, 7TD1, exp 7.07” value turned out to be 0.91; the “Rel. Potency, 7TD1, exp 29.06” value amounted to 0.88.

B13: 128G3 (germlined variant of 68F2), full-length IgG1 (antibody, V domains shown)
VH: B8 VH with S31T, V69T, W73V, A89P
VL: B8 VL with T13A, M49L, I60V, T76A, S82A, K106H
B13: in experiment [6], the “IC50, 7TD1 proliferation assay, exp 22.06 (batch 17.06)” value turned out to be 1.34 pM; the “IC50, 7TD1 proliferation assay, exp 29.06 (batch 17.06)” value was 1.07 pM; the “IC50, 7TD1 proliferation assay, exp 29.06 (batch 24.06)” value came out at 1.46 pM; the “Rel. Potency, 7TD1, exp 29.06 (batch 24.06)” value was determined as 0.38.

B14: 127E2 (germlined variant of 68F2), full-length IgG1 (antibody, V domains shown)
VH: B8 VH with S31T, W73V, K83Q, M117Q
VL: B8 VL with T13S, L41P, M49L, I60V, S82A, K106H
As to B14, in experiment [6], the “IC50, 7TD1 proliferation assay, exp 22.06 (batch 24.06)” value worked out at 1.38 pM; the “IC50, 7TD1 proliferation assay, exp 29.06 (batch 17.06)” value is 1.51 pM; the “IC50, 7TD1 proliferation assay, exp 29.06 (batch 24.06)” value is 1.25 pM; the “Rel. Potency, 7TD1, exp 29.06 (batch 24.06)” value amounted to 0.45.
